Kd data for 2 molecules are collected here from paper PMC10833452 (2023).

What all share (experiment): SPR
Assay [1] addresses WT-RBD.
In assay [2] the target is WT-RBD. The source holds these as a separate data set.
For assay [3], the target named is WT-RBD. This is another data set of the same source.

Where two headings read alike, the source gives them in different places.

B1: 3E2 monoclonal antibody (mouse IgG) (antibody, V domains shown)
VH: EVMLVESGGGVVKPGGSLKLSCAASGFSFSTYAMSWIRQTPEKSLEWVAAISSGGTNTYYPGSVKGRFTISRDKAMNTLYLQLSSLRSEDTAMYYCVRHSGNYVDSVMDYWGQGTSVTVSS
VL: QIVLTQSPAIMSASLGEEITLTCSVSSSVSDMHWYQQKSGTSPKVFIYSTSNLASGVPSRFSGSGSGTFYSLTISSVEAEDAAYYYCHQWSSWTFGGGTKLEIK
Regarding B1, the Kd came to 0.004 nM with WT-RBD [1] and 0.00354 nM with WT-RBD [2].

B2: 8H12 monoclonal antibody (mouse IgG) (antibody, V domains shown)
VH: EVKLEESGGGLVQPGGSMKLSCAASGFTFSDAWMDWVRQSPEKGLEWVAQIRRKANNHATYYAESVKGRFTISRDDSKSSVYLQMNSLRAEDTGIYYCIRGMTYAMDFWGQGTSVTVSS
VL: DIVMTQFQKFMSTSVGDRVSITCKASQNVRTAVAWYQQKPGQSPKAMIYLASNRHRGVPDRFTGSGCGTDFTLTISNVQCEDLADYFCLQHRNYPLTFGGGTKLEIK
With B2, the Kd in the assay with WT-RBD [3] worked out at 0.398 nM; with WT-RBD [1], 0.4 nM.
